Assay results taken from publication PMC5995387, “Binding of EphrinA5 to RET receptor tyrosine kinase: An in vitro study” (PLoS ONE, 2018).
“And” between values parts separate entries of the source, which are not always exact repeats. Equal entries are not always repeated.

Columns and labels:
EphA3-Fc (Mus musculus) = EphA3-Fc (Mus musculus) (UniProt P29319); settings: cited from earlier work
EphA4 LBD (Homo sapiens) = EphA4 LBD (Homo sapiens) (UniProt P54764); assay: SPR; settings: cited from earlier work
[1] = molecular target: T1, zebrafish GDNF family receptor alpha 1 extracellular domain (zGFRα1^ECD), Flag-His8-tagged (zebrafish (Danio rerio), UniProt Q98TT9 31-351); assay: native gel or EMSA; Blue Native PAGE, 4-20% gradient gel, Coomassie-stained; purified proteins mixed and incubated 30 min at room temperature, run at 4 °C; zefn-A5^ECD 8 μM, molar ratio 2:1:1:1:1 (zefn-A5^ECD:zRET^ECD:zGDNF:zGFRα1^ECD:mEphA4^LBD); band of the ternary complex checked by LC-MS/MS; settings: both partners purified
T1 construct: GDNF family receptor alpha 1, zebrafish, extracellular domain, residues 31-351 of NCBI NP_571805.1; not shown: Flag, N-terminal, kept; His8, N-terminal, kept
T1 sequence (looked up): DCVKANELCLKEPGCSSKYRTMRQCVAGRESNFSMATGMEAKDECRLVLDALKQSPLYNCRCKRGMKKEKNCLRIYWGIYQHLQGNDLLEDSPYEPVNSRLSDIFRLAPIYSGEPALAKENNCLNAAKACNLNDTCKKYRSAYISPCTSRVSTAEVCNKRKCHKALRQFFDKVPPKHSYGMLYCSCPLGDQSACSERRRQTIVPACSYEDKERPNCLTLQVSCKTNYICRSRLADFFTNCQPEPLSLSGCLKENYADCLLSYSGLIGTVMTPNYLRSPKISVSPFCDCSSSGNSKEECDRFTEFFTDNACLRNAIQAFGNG

[2] = molecular target: T2, zebrafish ephrinA5b extracellular domain (zefn-A5^ECD), Flag-His8-tagged (zebrafish (Danio rerio), UniProt P79728 21-204); assay: BLI; BLItz, zefn-A5^ECD (140 μM) immobilised on Ni-NTA biosensor; SEC buffer with 0.5% Tween-20; 2 min association, 3 min dissociation; Kd from plateau values, one-site total binding model; settings: both partners purified
T2 construct: ephrin-A5b, zebrafish, extracellular domain, residues 21-204 of NCBI NP_571101.1; thrombin cleavage site between the tags and the protein (pK503.9 vector); also called Danio rerio efn-A5b; efn-A5b; not shown: Flag, N-terminal, kept; His8, N-terminal, kept
T2 sequence (looked up): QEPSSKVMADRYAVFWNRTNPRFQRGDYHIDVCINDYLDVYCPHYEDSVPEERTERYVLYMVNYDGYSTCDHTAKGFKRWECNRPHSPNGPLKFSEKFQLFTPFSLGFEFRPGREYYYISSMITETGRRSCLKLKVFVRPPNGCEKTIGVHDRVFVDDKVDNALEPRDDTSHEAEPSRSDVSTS

EphA3-Fc (Mus musculus), sequence (P29319 21-540): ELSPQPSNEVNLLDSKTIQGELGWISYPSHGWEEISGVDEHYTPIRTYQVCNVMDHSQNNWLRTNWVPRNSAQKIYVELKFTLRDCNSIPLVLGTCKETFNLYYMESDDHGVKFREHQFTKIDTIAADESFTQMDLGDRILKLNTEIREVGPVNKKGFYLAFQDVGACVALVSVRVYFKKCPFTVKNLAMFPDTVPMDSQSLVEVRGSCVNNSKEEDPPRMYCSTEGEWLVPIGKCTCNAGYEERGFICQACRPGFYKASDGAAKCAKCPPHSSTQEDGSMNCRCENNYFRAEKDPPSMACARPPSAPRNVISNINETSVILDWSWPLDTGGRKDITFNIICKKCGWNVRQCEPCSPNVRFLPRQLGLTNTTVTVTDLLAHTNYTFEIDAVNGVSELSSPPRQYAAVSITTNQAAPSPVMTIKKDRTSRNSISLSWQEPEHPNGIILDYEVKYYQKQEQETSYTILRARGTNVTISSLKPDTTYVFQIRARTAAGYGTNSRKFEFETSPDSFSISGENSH
EphA4 LBD (Homo sapiens), sequence (P54764 30-209): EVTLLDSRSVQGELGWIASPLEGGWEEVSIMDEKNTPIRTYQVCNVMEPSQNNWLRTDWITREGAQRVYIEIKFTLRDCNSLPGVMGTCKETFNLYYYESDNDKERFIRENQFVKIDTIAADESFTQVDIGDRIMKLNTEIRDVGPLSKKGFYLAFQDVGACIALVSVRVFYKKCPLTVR

ephrinA5 ECD (from UniProt O08543)
Kd (EphA3-Fc (Mus musculus)): 8 nM

ephrinA5 ECD (from UniProt P52803)
Kd (EphA4 LBD (Homo sapiens)): 360 nM

B1: mature zebrafish glial cell-derived neurotrophic factor (zGDNF), N-terminal Flag tag (ligand, zebrafish (Danio rerio), UniProt Q98TU0 90-235, looked up)
chain: SSDVEPQMKRDRVRQKAAANTEKSGGRGRGERKRSRGRARSRDDRVKGQGRGCLLKEIHLNVTDLDLGYRTKEELIFRYCSGPCHDAETNYDKILNNLTHNKKLDKDTPSRTCCRPIAFDDDISFLDDSLEYHTLKKHSAKKCACV
notes: GDNF, zebrafish, mature zGDNF, residues 90-236 of NCBI NP_571807.1; Written as zGDNF2 (dimer) in the complexes; concentrations were calculated for the monomeric form; also called zGDNF2; source: Hi5 insect cells (baculovirus), secreted, purified as previously described [24]; not shown: Flag, N-terminal, kept
stoichiometry N [1]: 1 zGDNF per zGFRα1^ECD (2:2, binary complex) and ~2 zGDNF per zGFRα1^ECD (ternary complex with zRET^ECD)

B2: zebrafish RET extracellular domain (zRET^ECD), Flag-His8-tagged (domain or fragment, zebrafish (Danio rerio), UniProt A8E7C6 22-626, looked up)
chain: GLYFPQRLYTENIYVGQQQGSPLLQVISMREFPTERPYFFLCSHRDAFTSWFHIDEASGVLYLNKTLEWSDFSSLRSGSVRSPKDLTLKVGVSSTPPMKVMCTILPTVEVKLSFINDTAPSCGQVELSTLCFPEKISNPHITENREPGALRQLRRFTHMSICPNYTISYGVVAGSSVPFAVDDSTSELVVTAQVDREEKEVYHLDIVCMVRTERNLEEVFRSLHVNIYDEDDNSPYVNGTDTEDVLVEFDRSEGTVFGTLFVYDRDTTPVYPTNQVQNKLVGTLMTNDSWIKNNFAIEHKFREEKAIFGNVRGTVHEYKLKLSQNLSVTEQRSFLLGYLVNDTTFPGPEGTVLLHFNVTVLPVPIRFSNVTYSFTVSQKATTYSQIGKVCVENCQKFKGIDVTYQLEIVDRNITAEAQSCYWAVSLAQNPNDNTGVLYVNDTKVLRRPECQELEYVVIAQEQQNKLQAKTQLTVSFQGEADSLKTDEPRFPACAEKRQRGDCEATRGLGAPTGRCQWRQGRDKGISKRYSTCSPNLGTCPDGYCDAIESKNISICPQDCSSEAIIGGYERDLYGIKAGHGTCYCFEGKCFCERDEPEDDICNDMC
notes: RET receptor tyrosine kinase, zebrafish, extracellular domain, residues 22-626 of NCBI NP_858048.2; thrombin cleavage site after the tags (pK503.9 vector); A mixture of monomer, dimer and some higher oligomers by native PAGE; not shown: Flag, N-terminal, kept; His8, N-terminal, kept
stoichiometry N [1]: ~1 zRET^ECD per zGFRα1^ECD (ternary complex with zGDNF)

B3: mouse EphA4 ligand-binding domain with C-terminal human IgG1 hinge and Fc (mEphA4^LBD) (Fc fusion, mouse (Mus musculus), UniProt Q03137-1 29-210, looked up)
chain: NEVTLLDSRSVQGELGWIASPLEGGWEEVSIMDEKNTPIRTYQVCNVMEASQNNWLRTDWITREGAQRVYIEIKFTLRDCNSLPGVMGTCKETFNLYYYESDNDKERFIRESQFGKIDTIAADESFTQVDIGDRIMKLNTEIRDVGPLSKKGFYLAFQDVGACIALVSVRVFYKKCPLTVRN
notes: concentrations were calculated for the monomeric form. pMA152a vector; also called Mus musculus EphA4; source: Hi5 insect cells, purified (Protein-A Sepharose); not shown: Fc (human IgG1, with hinge region), C-terminal, kept
Kd [2]: 180 ± 10 nM
